Test results taken from patent publication US20200231681A1 (CHONG KUN DANG PHARMACEUTICAL, published 2020).

B1: hu8C4 AH71 (antibody, V domains shown)
VH: EVQLVESGGGLVQPGGSLRLSCAASGYTFSDYYINWVRQAPGKGLEWIGEIFPGWGNTHFSARFKGRATLSADKSKNTAYLQMNSLRAEDTAVYYCAGQDYGFLYWGQGTLVTVSS
VL: DIQMTQSPSSLSASVGDRVTITCGASENIYGALNWYQQKPGKAPKLLIYGATNLADGVPSRFSGSGSGRDFTFTISSLQPEDIATYYCQNVLSSPYTFGQGTKVEIK
B2: hu8C4 × Vectibix scFv bispecific antibody (bispecific antibody, human IgG2)
heavy: not shown
VL: B1 VL

What was measured:
[1] = target: T1, human c-Met ECD (ACROBiosystems, MET-H5227) (human, UniProt P08581 25-932); experiment: SPR (BIAcore), antibody captured by anti-human IgG Fc, antigen as analyte, 1:1 Langmuir
T1 construct: extracellular domain; Bought protein
Experimental: (§1) The antibodies were diluted in HBS-EP buffer (0.01 M HEPES pH 7.4, 0.15 M NaCl, 3 mM EDTA and 0.005% (v/v) Surfactant P20) at a concentration of 1-2 μg/ml, after which the resulting antibodies were injected into a CM5 chip with an anti-human Ig Fc fixed thereto at a flow rate of 30 μl/min for 10-120 seconds, and then captured in a range of 150-200 RU. Each antigen was used after being diluted at 10, 5, 2.5, 1.25, 0.625, 0.3125 and 0.15625 nM, after which the resulting antigens were sequentially injected from a lower concentration. Then, the resulting antigens were injected at a flow rate of 30 μl/min for 5 minutes to carry out binding, after which a running buffer was injected thereinto for 10-15 minutes to carry out a dissociation. 15 μl of 10 mM Glycine-HCl (pH 1.5) was used to revive the chip.

[2] = target: T2, cynomolgus monkey c-Met ECD (SiNo. Biological, 90304-CO8H) (cynomolgus monkey, UniProt A0A2K5UM36 25-932); experiment: as above
T2 construct: not shown: The vendor's tag
Experimental: as §1

[3] = target: T3, human EGFR ECD strep (ACROBiosystems, EGR-H5285) (human, UniProt P00533 25-645); experiment: as above
T3 construct: extracellular domain; Bought protein
Experimental: as §1

[4] = target: T4, cynomolgus monkey EGFR ECD (SiNo. Biological, 90285-008B) (cynomolgus monkey); experiment: as above
T4 construct: extracellular domain
Experimental: as §1

[5] = target: T5, mouse EGFR (SiNo. Biological Inc, 51091-M08H) (mouse, UniProt Q01279 25-647); experiment: ELISA, antigen coated at 2 µg/ml, antibody 6.4 pM to 100 nM, anti-human IgG F(ab')2-HRP, TMB, O.D. at 450 nm [panel Mouse EGFR]
T5 construct: extracellular domain
Experimental: (§2) Particularly, mouse c-Met (SiNo. Biological Inc, 50622-M08H), cynomolgus monkey c-Met (SiNo. Biological Inc, 90304-CO8H), human c-Met (R&D Systems, 358-MT), mouse EGFR (SiNo. Biological Inc, 51091-M08H), cynomolgus monkey EGFR (SiNo. Biological, 90285-008B) and human EGFR (Abcam, 155639) antigens were all divided into a 96-well plate at a concentration of 2 μg/ml, after which the resulting plate was reacted at 4° C. overnight.
(§3) Color development was made by using TMB (Sigma, T4444) solution, wherein its value was measured at an optical density of 450 nm and its ELISA results are shown in FIG. 9.

[6] = target: T6, mouse c-Met (SiNo. Biological Inc, 50622-M08H) (mouse, UniProt P16056 25-931); experiment: ELISA, antigen coated at 2 µg/ml, antibody 6.4 pM to 100 nM, anti-human IgG F(ab')2-HRP, TMB, O.D. at 450 nm [panel Mouse cMet]
T6 construct: extracellular domain
Experimental: as §2, §3

Row | Kd [1] [nM] | koff [1] [s⁻¹] | kon [1] [M⁻¹ s⁻¹] | Kd [2] [nM] | koff [2] [s⁻¹] | kon [2] [M⁻¹ s⁻¹] | Kd [3] [nM] | koff [3] [s⁻¹] | kon [3] [M⁻¹ s⁻¹] | Kd [4] [nM] | koff [4] [s⁻¹] | kon [4] [M⁻¹ s⁻¹] | binding result [5] | binding result [6] | Binder
1 | 0.0999 | 8.3e-05 | 831000 |  |  |  |  |  |  |  |  |  |  |  | B1
2 | 0.278 | 0.000204 | 734000 | 0.434 | 0.000337 | 777000 | 1.62 | 0.000126 | 77800 | 0.894 | 0.000127 | 142000 | no binding (tested: 100 nM) | no binding (tested: 100 nM) | B2
